{"source": "patent US20200199213A1", "about": "(Eli Lilly, published 2020)", "binders": {"B1": {"name": "Ab with LC variant having a D33T mutation (SEQ ID NO:23) and a HC of SEQ ID NO:6 (antibody, human IgG4 S228P, kappa, F234A L235A, V domains shown)", "VH": "QVTLKESGPTLVKPTQTLTLTCTFSGFSLSISGVGVGWIRQPPGKALEWLALIYRNDDKRYSPSLKSRLTITKDTSKNQVVLTLTNMDPVDTATYYCARTYSSGWYGNWFDPWGQGTLVTVSS", "VL": "DIVMTQTPLSLPVTPGEPASISCRSSQSLLDSTDGNTYLDWYLQKPGQSPQLLIYMLSYRASGVPDRFSGSGSGTDFTLKISRVEAEDVGIYYCMQRIEFPLTFGGGTKVEIKR", "notes": "also called D33T Ab"}, "B2": {"name": "Ab with LC variant having a M56T mutation (SEQ ID NO:24) and a HC of SEQ ID NO:6 (antibody, human IgG4 S228P, kappa, F234A L235A, V domains shown)", "VH": "B1 VH", "VL": "B1 VL with T33D, M56T"}, "B3": {"name": "human ANGPTL3 (other)", "chain": "SRIDQDNSSFDSLSPEPKSRFAMLDDVKILANGLLQLGHGLKDFVHKTKGQINDIFQKLNIFDQSFYDLSLQTSEIKEEEKELRRTTYKLQVKNEEVKNMSLELNSKLESLLEEKILLQQKVKYLEEQLTNLIQNQPETPEHPEVTSLKTFVEKQDNSIKDLLQTVEDQYKQLNQQHSQIKEIENQLRRTSIQEPTEISLSSKPRAPRTTPFLQLNEIRNVKHDGIPAECTTIYNRGEHTSGMYAIRPSNSQVFHVYCDVISGSPWTLIQHRIDGSQNFNETWENYKYGFGRLDGEFWLGLEKIYSIVKQSNYVLRIELEDWKDNKHYIEYSFYLGNHETNYTLHLVAITGNVPNAIPENKDLVFSTWDHKAKGHFNCPEGYSGGWWWHDECGENNLNGKYNKPRAKSKPERRRGLSWKSQNGRLYSIKSTKMLIHPTDSESFE"}, "B4": {"name": "cynomolgus ANGPTL3/8 complex (other)", "chain 1": "SRIDQDNSSFDSVSPEPKSRFAMLDDVKILANGLLQLGHGLKDFVHKTKGQINDIFQKLNIFDQSFYDLSLQTSEIKEEEKELRRTTYKLQVKNEEVKNMSLELNSKLESLLEEKILLQQKVKYLEEQLTNLIQNQPATPEHPEVTSLKSFVEKQDNSIKDLLQTVEEQYKQLNQQHSQIKEIENQLRMTNIQEPTEISLSSKPRAPRTTPFLQLNEIRNVKHDGIPADCTTIYNRGEHISGTYAIRPSNSQVFHVYCDVVSGSPWTLIQHRIDGSQNFNETWENYKYGFGRLDGEFWLGLEKIYSIVKQSNYVLRIELEDWKDNKHYIEYSFYLGNHETNYTLHVVKITGNVPNAIPENKDLVFSTWDHKAKGHFSCPESYSGGWWWHDECGENNLNGKYNKPRTKSKPERRRGLSWKSQNGRLYSIKSTKMLIHPTDSESFE", "chain 2": "APVSSPELAEHEELTLLFHGTLQLGQALNGVYKTTEGRLTKARNSLGLYGRTVELLGQEVSRGRDAAQELRASLLETQMEEDILQLKAEAIAEVLEEVAQAQKVLQDSVRQLEVQLRSAWLGPAYQEFEVLKAHADKQSHILWALTGHVQRQRREMVAQQHRLRQIQERIHKAALPA"}, "B5": {"name": "human ANGPTL3/8 complex (other)", "chain 1": "SRIDQDNSSFDSLSPEPKSRFAMLDDVKILANGLLQLGHGLKDFVHKTKGQINDIFQKLNIFDQSFYDLSLQTSEIKEEEKELRRTTYKLQVKNEEVKNMSLELNSKLESLLEEKILLQQKVKYLEEQLTNLIQNQPETPEHPEVTSLKTFVEKQDNSIKDLLQTVEDQYKQLNQQHSQIKEIENQLRRTSIQEPTEISLSSKPRAPRTTPFLQLNEIRNVKHDGIPAECTTIYNRGEHTSGMYAIRPSNSQVFHVYCDVISGSPWTLIQHRIDGSQNFNETWENYKYGFGRLDGEFWLGLEKIYSIVKQSNYVLRIELEDWKDNKHYIEYSFYLGNHETNYTLHLVAITGNVPNAIPENKDLVFSTWDHKAKGHFNCPEGYSGGWWWHDECGENNLNGKYNKPRAKSKPERRRGLSWKSQNGRLYSIKSTKMLIHPTDSESFEAAADYKDDDDK", "chain 2": "APMGGPELAQHEELTLLFHGTLQLGQALNGVYRTTEGRLTKARNSLGLYGRTIELLGQEVSRGRDAAQELRASLLETQMEEDILQLQAEATAEVLGEVAQAQKVLRDSVQRLEVQLRSAWLGPAYREFEVLKAHADKQSHILWALTGHVQRQRREMVAQQHRLRQIQERLHTAALPA"}}, "key": {"[1]": {"biological_target": "B3", "test": "single point ELISA; IgG captured by anti-human Fc; biotinylated antigen at 25 nM", "description": "(§1) Single Point ELISA (SPE) Assay: Ab binding selectivity to either the ANGPTL3/8 complex, free ANGPTL3 or free ANGPTL8 is initially verified using standard ELISA assays in a single point format. […] IgG secreted into supernatants after expression in CHO cells are then captured to the assay plate. Biotinylated antigen is added at a concentration of 25 nM to allow for Ab/antigen binding. Ab/antigen complexes are detected after adding alkaline phosphatase-conjugated neutravidin and alkaline phosphatase substrate, and subsequent measurement of the optical density at 560 nm. Positive binding is determined by a signal greater than 3 fold over the non-binding background signal."}, "[2]": {"biological_target": "B5", "test": "single point ELISA; IgG captured by anti-human Fc; biotinylated antigen at 25 nM", "description": "as §1"}, "[3]": {"biological_target": "T1, human ANGPTL8 (human, UniProt Q6UXH0 22-198)", "T1 construct": "Biotinylated in the ELISA assays; also called hANGPTL8; free ANGPTL8", "T1 sequence": "B5 chain 2", "test": "single point ELISA; IgG captured by anti-human Fc; biotinylated antigen at 25 nM", "description": "as §1"}, "[4]": {"biological_target": "T2, mouse ANGPTL3/8 complex (mouse, UniProt Q9R182 17-455; Q8R1L8 16-198, limits assumed)", "T2 sequence (looked up) 1": "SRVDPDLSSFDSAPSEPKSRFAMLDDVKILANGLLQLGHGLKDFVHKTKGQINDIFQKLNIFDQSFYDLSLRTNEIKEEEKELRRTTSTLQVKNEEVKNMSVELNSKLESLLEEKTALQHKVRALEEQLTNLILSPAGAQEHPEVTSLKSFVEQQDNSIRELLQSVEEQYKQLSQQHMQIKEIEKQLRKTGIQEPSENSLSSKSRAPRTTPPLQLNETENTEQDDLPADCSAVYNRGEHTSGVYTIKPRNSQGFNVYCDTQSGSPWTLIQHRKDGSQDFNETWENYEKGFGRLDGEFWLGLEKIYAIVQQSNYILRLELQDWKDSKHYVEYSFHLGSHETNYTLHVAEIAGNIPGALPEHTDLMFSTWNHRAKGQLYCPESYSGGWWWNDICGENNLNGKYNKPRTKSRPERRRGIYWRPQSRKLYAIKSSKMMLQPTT", "T2 sequence (looked up) 2": "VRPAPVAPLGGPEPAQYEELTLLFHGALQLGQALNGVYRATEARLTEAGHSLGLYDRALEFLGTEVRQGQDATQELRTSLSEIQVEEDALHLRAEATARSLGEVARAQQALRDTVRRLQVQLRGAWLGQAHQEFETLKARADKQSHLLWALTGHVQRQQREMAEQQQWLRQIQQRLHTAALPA", "test": "cell-based or functional assay"}, "[5]": {"biological_target": "B5", "test": "cell-based or functional assay"}, "[6]": {"biological_target": "B3", "test": "single point ELISA", "description": "as §1"}, "[7]": {"biological_target": "T1, human ANGPTL8", "test": "single point ELISA", "description": "as §1"}, "[8]": {"biological_target": "T3, LPL (lipoprotein lipase) on LPL-expressing cells of Example 1", "T3 sequence (P06858 28-475, species assumed, looked up)": "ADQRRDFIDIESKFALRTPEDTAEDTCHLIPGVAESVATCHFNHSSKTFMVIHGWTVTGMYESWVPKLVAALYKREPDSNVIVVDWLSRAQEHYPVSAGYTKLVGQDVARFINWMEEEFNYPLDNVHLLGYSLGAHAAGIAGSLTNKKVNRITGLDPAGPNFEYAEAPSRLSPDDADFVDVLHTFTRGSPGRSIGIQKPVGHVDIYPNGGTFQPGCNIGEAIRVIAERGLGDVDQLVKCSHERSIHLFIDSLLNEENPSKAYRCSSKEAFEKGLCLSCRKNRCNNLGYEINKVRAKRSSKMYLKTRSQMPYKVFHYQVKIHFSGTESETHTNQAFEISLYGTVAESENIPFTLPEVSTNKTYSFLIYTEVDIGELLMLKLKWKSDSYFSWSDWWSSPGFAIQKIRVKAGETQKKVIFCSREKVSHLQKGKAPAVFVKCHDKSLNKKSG", "test": "cell-based or functional assay"}, "[9]": {"biological_target": "T4, cynomolgus LPL (cynomolgus, UniProt A0A7N9D851 28-475)", "T4 sequence": "T3 sequence (P06858 28-475, species assumed, looked up) with E92Q", "test": "cell-based or functional assay"}, "[10]": {"biological_target": "T5, human LPL (human, UniProt P06858 28-475)", "T5 sequence (looked up)": "T3 sequence (P06858 28-475, species assumed, looked up)", "test": "cell-based or functional assay"}}, "note": "Positions count from the first letter of the chain named. Names may count otherwise."}
{"binder": "B1", "values": [{"measurement": "OD at 560 nm", "setting": "[1]", "value": 0.06, "unit": "OD 560 nm"}, {"measurement": "OD at 560 nm", "setting": "[2]", "value": 0.661, "unit": "OD 560 nm"}, {"measurement": "OD at 560 nm", "setting": "[3]", "value": 0.07, "unit": "OD 560 nm"}, {"measurement": "% Max Derepression LPL", "setting": "[4]", "value": 114, "unit": "%"}, {"measurement": "Ab EC50 (nM), derepression of LPL", "setting": "[4]", "value": 4.55, "unit": "nM"}, {"measurement": "% Max Derepression LPL", "setting": "[5]", "value": 105, "unit": "%"}, {"measurement": "Ab EC50 (nM), derepression of LPL", "setting": "[5]", "value": 1.56, "unit": "nM"}, {"measurement": "binding result", "setting": "[6]", "value": "no binding"}, {"measurement": "binding result", "setting": "[7]", "value": "no binding"}]}
{"binder": "B2", "values": [{"measurement": "OD at 560 nm", "setting": "[1]", "value": 0.06, "unit": "OD 560 nm"}, {"measurement": "OD at 560 nm", "setting": "[2]", "value": 0.775, "unit": "OD 560 nm"}, {"measurement": "OD at 560 nm", "setting": "[3]", "value": 0.085, "unit": "OD 560 nm"}, {"measurement": "binding result", "setting": "[6]", "value": "no binding"}, {"measurement": "binding result", "setting": "[7]", "value": "no binding"}]}
{"binder": "B3", "values": [{"measurement": "EC50 in the LPL assay (inhibition of LPL)", "setting": "[8]", "value": 21.5, "unit": "nM"}]}
{"binder": "B4", "values": [{"measurement": "IC80 concentration (inhibition of LPL activity)", "setting": "[9]", "value": 0.38, "unit": "nM"}]}
{"binder": "B5", "values": [{"measurement": "IC80 concentration (inhibition of LPL activity)", "setting": "[10]", "value": 0.42, "unit": "nM"}, {"measurement": "EC50 in the LPL assay (inhibition of LPL)", "setting": "[8]", "value": 0.54, "unit": "nM"}]}
